Numbered stars: 1 amine (or outer) side, 2 acyl side, 3 side chain; on linkers, the order of the positions; unused ones are H or OH. Square brackets hold non-standard residues; d marks the D form. Peptide text beside a SMILES is read from it. * marks the point of attachment. NOTA = O=C(O)CN1CCN(CC(=O)O)CCN(CC(=O)*)CC1; γGlu = O=C(O)[C@H](CCC(=O)[*:2])N[*:1]; Sta = CC(C)C[C@H](N)[C@@H](O)CC(=O)O; AEEA = NCCOCCOCC(=O)O; Aoc = NCCCCCCCC(=O)O; CO = O=C([*:1])[*:2]
What was measured:
[1] = in vivo; conditions: BALB/c nu/nu, mouse, iv, 40 pmol, total radioactivity
Experimental: (§1) Ex vivo experiments and in vivo imaging were carried out using BALB/c nu/nu mice bearing PC3-pip xenografts. All studies were performed according to the guidelines of the Declaration of Helsinki and approved by the Ethics Committee for Animal Research in Uppsala, Sweden (5.8.18-00473/2021. Approved on 26 February 2021).
(§2) There were 4 mice in each group. At 1 and 3 h pi, mice were sacrificed after an intraperitoneal injection of a Ketalar–Rompun solution (20 μL/g body weight) consisting of Ketalar (10 mg/mL) and Rompun (1 mg/mL), followed by heart puncture.

[2] = system: PC3-pip xenografts; test: in vivo; conditions: non-blocked
Experimental: as §1, §2

CC(C)C[C@H](NC(=O)C[C@H](O)[C@H](CC(C)C)NC(=O)[C@H](Cc1c[nH]cn1)NC(=O)CNC(=O)[C@@H](NC(=O)[C@H](C)NC(=O)[C@H](Cc1c[nH]c2ccccc12)NC(=O)[C@H](CCC(N)=O)NC(=O)[C@@H](Cc1ccccc1)NC(=O)COCCOCCNC(=O)[C@H](CCCCNC(=O)CN1CCN(CC(=O)O)CCN(CC(=O)O)CC1)NC(=O)[C@H](Cc1ccccc1)NC(=O)CCCCCCCNC(=O)CC[C@H](NC(=O)N[C@@H](CCC(=O)O)C(=O)O)C(=O)O)C(C)C)C(N)=O [[^68Ga]Ga-BQ7812, metal not drawn] ({Glu-CO-γGlu-Aoc}-FK(NOTA)[AEEA][dF]QWAVGH[Sta]L-NH2)
tissue uptake at 1 h ([1]; blood): 0.86 ± 0.16 %ID/g | tissue uptake at 3 h ([1]; blood): 0.16 ± 0.02 %ID/g | tissue uptake at 1 h ([1]; bone): 0.31 ± 0.06 %ID/g | tissue uptake at 3 h ([1]; bone): 0.13 ± 0.03 %ID/g | tissue uptake at 1 h ([1]; kidneys): 45.3 ± 16.6 %ID/g | tissue uptake at 1 h ([1]; liver): 0.89 ± 0.1 %ID/g | tissue uptake at 3 h ([1]; liver): 0.57 ± 0.03 %ID/g | tissue uptake at 1 h ([1]; lungs): 0.86 ± 0.15 %ID/g | tissue uptake at 3 h ([1]; lungs): 0.2 ± 0.05 %ID/g | tissue uptake at 1 h ([1]; muscle): 0.21 ± 0.04 %ID/g | tissue uptake at 3 h ([1]; muscle): 0.05 ± 0.01 %ID/g | tissue uptake at 1 h ([1]; pancreas): 5.6 ± 0.7 %ID/g | tissue uptake at 3 h ([1]; pancreas): 0.6 ± 0.16 %ID/g | tissue uptake at 1 h ([1]; remaining organs (other than tumour, kidneys, pancreas)): ≤ 1 %ID/g | tissue uptake at 1 h ([1]; salivary glands): 0.44 ± 0.07 %ID/g | tissue uptake at 3 h ([1]; salivary glands): 0.14 ± 0.03 %ID/g | tissue uptake at 1 h ([1]; small intestine): 1.33 ± 0.31 %ID/g | tissue uptake at 3 h ([1]; small intestine): 0.2 ± 0.02 %ID/g | tissue uptake at 1 h ([1]; spleen): 0.92 ± 0.16 %ID/g | tissue uptake at 3 h ([1]; spleen): 0.33 ± 0.03 %ID/g | tissue uptake at 3 h ([1]; tumour (PC3-pip xenograft)): 5.68 ± 0.62 %ID/g | tissue to tissue ratio at 3 h ([1]; tumour (PC3-pip) / bone): 47 ± 13 | tissue to tissue ratio at 3 h ([1]; tumour (PC3-pip) / kidneys): 0.53 ± 0.07 | tissue to tissue ratio at 3 h ([1]; tumour (PC3-pip) / liver): 9.9 ± 0.8 | tissue to tissue ratio at 3 h ([1]; tumour (PC3-pip) / muscle): 116 ± 22 | tissue to tissue ratio at 3 h ([1]; tumour (PC3-pip) / pancreas): 10 ± 4 | tissue to tissue ratio at 3 h ([1]; tumour (PC3-pip) / small intestine): 28 ± 4 | tissue to tissue ratio at 3 h ([1]; tumour (PC3-pip) / spleen): 18 ± 3 | tissue uptake at 1 h ([1]; tumour (PC3-pip)): 10.4 ± 0.97 %ID/g | tissue uptake at 3 h ([1]; tumour (PC3-pip)): 5.7 ± 0.6 %ID/g | tissue to tissue ratio at 1 h ([1]; tumour / blood): 13 ± 3 | tissue to tissue ratio at 3 h ([1]; tumour / blood): 35 ± 4 | tissue to tissue ratio at 1 h ([1]; tumour / bone): 35 ± 8 | tissue to tissue ratio at 1 h ([1]; tumour / kidneys): 0.3 ± 0.1 | tissue to tissue ratio at 1 h ([1]; tumour / liver): 11.8 ± 1 | tissue to tissue ratio at 1 h ([1]; tumour / lungs): 12 ± 3 | tissue to tissue ratio at 3 h ([1]; tumour / lungs): 29 ± 5 | tissue to tissue ratio at 1 h ([1]; tumour / muscle): 52 ± 12 | tissue to tissue ratio at 1 h ([1]; tumour / pancreas): 1.9 ± 0.2 | tissue to tissue ratio at 1 h ([1]; tumour / salivary glands): 24 ± 3 | tissue to tissue ratio at 3 h ([1]; tumour / salivary glands): 40 ± 8 | tissue to tissue ratio at 1 h ([1]; tumour / small intestine): 8 ± 2 | tissue to tissue ratio at 1 h ([1]; tumour / spleen): 12 ± 3 | Activity uptake in the kidneys at 3 h pi as % of uptake at 1 h pi [2]: 26% | Activity uptake in the pancreas at 3 h pi as % of uptake at 1 h pi [2]: 11% | Activity uptake in the tumour at 3 h pi as % of uptake at 1 h pi [2]: 55%

Reference: article PMC9856709 (Cancers, 2023)
